The target of the assay is GST-BLM fusion protein (human), P54132. The assay can be described thus: pull-down. To be noted: remark: other sources report otherwise.
Sequence of GST-BLM fusion protein (human), P54132 (P54132 whole entry, the tested form may be a part): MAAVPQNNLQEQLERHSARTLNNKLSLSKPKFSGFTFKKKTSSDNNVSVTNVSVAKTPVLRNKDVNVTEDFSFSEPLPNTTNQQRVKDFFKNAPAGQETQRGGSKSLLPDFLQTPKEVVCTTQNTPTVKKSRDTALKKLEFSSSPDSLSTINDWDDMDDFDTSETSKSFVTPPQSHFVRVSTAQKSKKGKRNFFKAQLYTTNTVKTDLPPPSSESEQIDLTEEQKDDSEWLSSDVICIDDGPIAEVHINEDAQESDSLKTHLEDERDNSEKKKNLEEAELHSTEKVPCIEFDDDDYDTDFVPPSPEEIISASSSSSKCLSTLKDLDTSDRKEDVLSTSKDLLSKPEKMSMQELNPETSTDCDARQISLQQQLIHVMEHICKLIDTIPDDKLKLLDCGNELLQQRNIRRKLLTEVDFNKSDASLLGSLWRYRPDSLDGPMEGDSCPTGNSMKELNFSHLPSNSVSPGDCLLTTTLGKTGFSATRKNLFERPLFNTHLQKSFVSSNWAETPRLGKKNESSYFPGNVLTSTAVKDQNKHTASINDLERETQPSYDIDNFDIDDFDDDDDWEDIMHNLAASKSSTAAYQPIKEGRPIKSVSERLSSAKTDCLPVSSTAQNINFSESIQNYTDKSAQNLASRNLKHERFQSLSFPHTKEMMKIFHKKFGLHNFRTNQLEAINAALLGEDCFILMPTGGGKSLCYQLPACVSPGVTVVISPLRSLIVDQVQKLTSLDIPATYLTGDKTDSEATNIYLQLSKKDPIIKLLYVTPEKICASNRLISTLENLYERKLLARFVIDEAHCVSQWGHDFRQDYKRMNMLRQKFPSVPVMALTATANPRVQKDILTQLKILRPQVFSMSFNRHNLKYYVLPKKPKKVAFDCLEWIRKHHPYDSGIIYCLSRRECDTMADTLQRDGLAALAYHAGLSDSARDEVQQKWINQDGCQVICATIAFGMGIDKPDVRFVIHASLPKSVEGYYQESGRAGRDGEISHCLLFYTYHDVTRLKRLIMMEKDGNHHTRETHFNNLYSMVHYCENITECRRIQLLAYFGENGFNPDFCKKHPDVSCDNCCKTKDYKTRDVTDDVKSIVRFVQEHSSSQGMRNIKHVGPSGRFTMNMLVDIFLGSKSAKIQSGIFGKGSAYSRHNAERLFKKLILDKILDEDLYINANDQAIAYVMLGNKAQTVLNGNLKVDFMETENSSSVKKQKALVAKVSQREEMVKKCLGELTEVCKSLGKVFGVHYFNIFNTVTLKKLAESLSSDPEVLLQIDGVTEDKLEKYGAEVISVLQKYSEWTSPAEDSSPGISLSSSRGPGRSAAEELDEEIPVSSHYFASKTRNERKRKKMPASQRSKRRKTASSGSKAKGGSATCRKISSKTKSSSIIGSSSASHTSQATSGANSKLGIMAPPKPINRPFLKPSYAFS

B1: hRAD51, Q06609 1-339 (natural protein)
chain: MAMQMQLEANADTSVEEESFGPQPISRLEQCGINANDVKKLEEAGFHTVEAVAYAPKKELINIKGISEAKADKILAEAAKLVPMGFTTATEFHQRRSEIIQITTGSKELDKLLQGGIETGSITEMFGEFRTGKTQICHTLAVTCQLPIDRGGGEGKAMYIDTEGTFRPERLLAVAERYGLSGSDVLDNVAYARAFNTDHQTQLLYQASAMMVESRYALLIVDSATALYRTDYSGRGELSARQMHLARFLRMLLRLADEFGVAVVITNQVVAQVDGAAMFAADPKKPIGGNIIAHASTTRLYLRKGRGETRICKIYDSPCLPEAEAMFAINADGVGDAKD
As for B1, the percent of the hRAD51 in the lysate retained lay in the range of 30 to 40%.

For the origin of these results see PMC2169463.
